Results on six molecules are retold here after patent US12583913B2, “Antibody specific to Staphylococcus aureus, therapeutic method and detection method using same” (priority 2019, dated 2026).

For assay [1], the system named is GMA-2105. Description: Solid phase competitive inhibition ELISA with variant staphylocoagulase peptides. Particulars: peptide incubated with GMA-2105 in solution overnight at 4 degrees C. Type of assay: binding. From the text: There are reported strain specific sequence differences at residue positions 8 and 9 of staphylocoagulase (SEQ ID. No.: 2). […] Wantabe, et al., Genetic Diversity of Staphylocoagulase Genes (coa): Insight into the evolution of variable chromosomal virulence factors in Staphylococcus aureus. PLoS ONE 2009; 4(5): 1-11, incorporated herein by reference in its entirety. […] 9 (“Mutated Peptide Ala 8”), position 9 of SEQ ID NO. 9 (“Mutated Peptide Ala 9”), and position 8 and 9 of SEQ ID NO.: 9 (“Mutated Peptide Ala 8 & 9”) (see FIG. 13). We measured the binding of each synthetic peptide (Mutated Peptide Ala 8, Mutated Peptide Ala 9, and Mutated Peptide Ala 8 & 9) to GMA-2105 in solution.
We tested binding of Mutated Peptide Ala 8, Mutated Peptide Ala 9, and Mutated Peptide Ala 8 & 9 to GMA-2105 in a solid phase competitive inhibition assay. GMA-2105 was incubated with increasing concentrations of each of Mutated Peptide Ala 8, Mutated Peptide Ala 9, and Mutated Peptide Ala 8 & 9 (referred to hereafter as “GMA-2105—Mutated Peptide samples”) in solution overnight at 4 degrees C. The incubation was followed by transfer of the GMA-2105—Mutated Peptide samples to wells coated with the non-mutated peptide, […] (SEQ ID. No.: 9) and blocked with 0.1% BSA PBS. After a 30-minute incubation, wells were washed with PBS containing 0.05% TWEEN 20, followed by addition of goat anti-mouse secondary antibody conjugated to horseradish peroxidase. Substrate ortho-phenylenediamine conversion to product was measured at 490 nm using a spectrophotometer. The negative control as was a purified irrelevant synthetic peptide.
On the technique in general: An ELISA detects its analyte on a solid surface through an enzyme-linked reagent.

In assay [2] the test system is staphylocoagulase. Description: Western blot detection of staphylocoagulase in cultured bacteria supernatants. The format is binding. Particulars: supernatants of S. aureus strains COL and MW2 (MRSA). From the text:
Lanes A, B, and C contain concentrated (10×) supernatants from identically cultured bacteria. Lane A: S. saprophyticus (coagulase negative bacterium control); Lane B: S. aureus strain COL (MRSA); Lane C: S. aureus strain MW2 (MRSA); Lane D: media blank; Lane E: staphylocoagulase peptide conjugated to ovalbumin (SEQ ID NO.: 9).

Assay [3] addresses T1, staphylocoagulase peptide SC(1-10) […] (SEQ ID NO: 9) (Staphylococcus aureus, UniProt P17855).
T1 construct: made in house; host or cells: chemical synthesis
Put plainly: Solid-phase ELISA on staphylocoagulase peptide. The format is binding, S. aureus. Here is the method:
Two additional 50 μg injections (peptide-KLH conjugate in incomplete Freunds adjuvant) were given on days 61 and 111. A serum sample from each mouse was collected on Day 122 and the antibody titer measured by solid-phase Enzyme Linked Immunosorbant Assay (ELISA) using the staphylocoagulase and/or vWbp peptide conjugated to ovalbumin coated on 96-well ELISA plates at 2 ug/ml. Uncoated areas of the wells were blocked with albumin from bovine serum (BSA). The wells were then incubated with dilutions of the mouse serum to test whether the serum contained antibodies to the staphylocoagulase and/or vWbp peptide. Bound antibodies were detected with anti-mouse IgG secondary antibody conjugated to horseradish peroxidase. The plates were then incubated with o-phenylenediamine (OPD) substrate which undergoes a color change in the presence of HRP the intensity of which can be measured using absorption at 490 nm wavelength in a microplate reader. […]
Purified chimeric GMA-2105 and murine GMA-2105 antibody were tested against staphylocoagulase peptide […] […] Antibody-antigen complex was detected using a goat anti-mouse secondary antibody conjugated to horseradish peroxidase or goat anti-human secondary antibody conjugated to horseradish peroxidase. Substrate ortho-phenylene diamine conversion to product was measured at 490 nm using a spectrophotometer

The target in assay [4] is T2, BODIPY-labeled staphylocoagulase SC (S7C) (1-325) (Staphylococcus aureus, UniProt P17855, S33C).
T2 construct: BODIPY fluorophore (chemical label)
Put plainly: Equilibrium binding of BODIPY-labeled staphylocoagulase, fluorescence titration in solution. More on the design: species or system S. aureus. Here is the method: In solution, the antibody bound Ser 7 to Cys mutant of SC(1-325). Binding studies were done using the BODIPY-labeled staphylocoagulase SC (S7C) (1-325) (SEQ ID NO.: 2, positions 1-325 with Cys at position 7). The change of fluorescence upon antibody binding is measured as a function of the unlabeled ligand concentration and fitting the data to the quadratic binding equation gives the dissociation constant (KD), and the stoichiometry (n). Panizzi, et al., Fibrinogen substrate recognition by staphylocoagulase-(pro)thrombin complexes, J. Biol. Chem. 2006; 281:118-95.
Direct binding of BODIPY-SC(S7C) at 27 nM (●) and 130 nM (∘) probe titrated with GMA-2105 caused fluorescence increase, whereas unlabeled SC(1-246) (triangles) displaced BODIPY-SC(S7C) labeled staphylocoagulase from binding the antibody. Simultaneous fit of all datasets provide the Kd for the unmodified competitor to the antibody.
Concentrations were: BODIPY-staphylocoagulase (1-325) at 27 nM (●) and 130 nM (∘) titrated with GMA-2105 and unlabeled staphylocoagulase (1-246)(residues 1-246 of SEQ ID No. 2).
In FIG. 29, BODIPY®-labeled staphylocoagulase fragment (1-325) at 27 nM (●) and 130 nM (∘) titrated with chimeric GMA-2105 in solution in the presence of unlabeled staphylocoagulase fragment (1-246) (▴).

Assay [5] addresses SC(1-246)●prothrombin^3Q (Staphylococcus aureus, UniProt P17855). Put plainly: Inhibition of prothrombin^3Q activation by SC(1-246), S2238 hydrolysis. Type of assay: biochemical, S. aureus. Particulars: read-out: affinity of inhibition of prothrombin^3Q activation by SC(1-246); prothrombin 1 nM, SC(1-246) 5.6 nM and 28 nM.

Take “Mutated Peptide Ala 8 & 9: synthetic peptide with alanine substitutions at positions 8 and 9 of SEQ ID NO. 9 (IVTKDYSAAS)”: the “inhibition of GMA-2105 binding to wells coated with […]” value (“inhibition of GMA-2105 binding” for short) in assay [1] is “inhibited binding of antibody”.

“Mutated Peptide Ala 8: synthetic peptide with alanine substitution at position 8 of SEQ ID NO. 9 (IVTKDYSAES)”: the “inhibition of GMA-2105 binding” value in assay [1] is recorded as “inhibited binding of antibody”.

Take “Mutated Peptide Ala 9: synthetic peptide with alanine substitution at position 9 of SEQ ID NO. 9 (IVTKDYSKAS)”: in assay [1], the “inhibition of GMA-2105 binding” value is “inhibited binding of antibody”.

B1: GMA-2105 F(ab): fragment antigen-binding fragment of GMA-2105 (antibody, V domains shown)
VH: EVKLEESGGGLVQPGGSMKLSCAASGFTFSDAWMDWVRQSPEKGLEWVAEIRTKANNHATYYAESVKGRFTISRDDSKSSVYLQMNSLRAEDTGIYYCTNVYYGNNDVKDYWGQGTSVTVSPAS
VL: DIVMTQSQKFMSTSVGDRVSVTCKASQNVDIYVAWYQQKPGQSPKALIYSASYRFSGVPDRFTGSGSGTDFTLSISNVQSEDLAEYFCQQYNNYPYTFGGGTKLEIKRADAAPTVSIFPPSSEGRI
Regarding B1, in assay [2], the “binding of staphylocoagulase in cultured bacteria, Western blot” value is given as “bind staphylocoagulase”. In addition, the “binding to staphylocoagulase peptide in ELISA” value in assay [3] is listed as “capable of binding”.

B2: chimeric GMA-2105 (antibody, V domains shown)
VH: B1 VH
VL: B1 VL
With B2, the “binding characteristics compared with murine GMA-2105” value in assay [4] (FIG. 30) was “essentially identical”. In assay [4] (chimeric antibody), the stoichiometry is recorded as 2 mol staphylocoagulase/mol chimeric antibody. Besides, the “binding to staphylocoagulase peptide in ELISA” value in assay [3] is listed as “binding”.

B3: GMA-2105: inhibitory mouse anti-staphylocoagulase monoclonal antibody raised against peptide […]; VH SEQ ID NO 6, VL SEQ ID NO 8 (protein)
chain 1: B1 VH
chain 2: B1 VL
For B3, the Kd in assay [5] came to 0.9 nM.
